Results published in US20230002757A1 (ZHEJIANG NANOMAB TECHNOLOGY CENTER, published 2023).

B1: 504#SS14 (Fc fusion, not shown: a dimerising Fc or GST; small tags and cut ends)
VHH: QVQLVESGGGLVQPGGSLRLSCVASGFTFSSYWMYWVRQAPGKGLEWVSAIDTTGGSTAYTHSVKGRFTISRDNARNTLYLQMNNLKSEDTAVYYCANSTYFNDDPEYDRWGQGTQVTVSS
notes: VHH-FC construct from HEK293 cells
B2: 504#SS15 (Fc fusion, not shown: a dimerising Fc or GST; small tags and cut ends)
VHH: QVQLVESGGGLVQPGGSLRLSCAASGFTFSNYAMTWYRQAPGKERELVAAISSAGYTTTYAGSVKGRFTISRDNAKNTVYLQMNSLNPEDTAVYYCNAGRLSYGGSYYPNDDYWGQGTQVTVSS
notes: as for B1
B3: 504#SS16 (Fc fusion, not shown: a dimerising Fc or GST; small tags and cut ends)
VHH: EVQVVESGGGLVQAGGSLRLSCAVSGRTFSSYVMGWFRQAPGKERDFVAAISRSGGRTWYADSVKGRFTISFDNAKNTVYLQMNSLKPEDTASYYCNTDYTFAKLTAPDRRNDDWGQGTQVTVSS
notes: as for B1
B4: 504#SS22 (Fc fusion, not shown: a dimerising Fc or GST; small tags and cut ends)
VHH: QVQLVETGGGLVQAGGSLRLSCAASGRTFSSYAMGWFRQAPGKERDFVAGISGSGGNTPYAESVKGRFTISRDNAKNTVALQMNSLKPEDTAVYYCAAKFTSSSFYYRSPREYSSWGQGTQVTVSS
notes: as for B1
B5: 504#SS23 (Fc fusion, not shown: a dimerising Fc or GST; small tags and cut ends)
VHH: QVQLVESGGGLVQPGGSLRLSCAASGFTFSSYVMSWVRQAPGKGLEWVSAINSGGSSSSYPESVKDRFTVSRDNAKNTLYLQMNSLKPEDTAVYFCAAKNVPGFYYSDYANHEYDYWGQGTQVTVSS
notes: as for B1
B6: 504#SS25 (Fc fusion, not shown: a dimerising Fc or GST; small tags and cut ends)
VHH: QVQLVETGGGLVQAGGSLRLSCAASGDTIFISSMAWYRQAPGKERELVASIDSDDIIYYAATVKGRFTISRDNDKPTMYLQMDTLQPEDTAVYYCRVESQDYYFDYDRDSWGQGTQVTVSS
notes: as for B1
B7: 504#SS28 (Fc fusion, not shown: a dimerising Fc or GST; small tags and cut ends)
VHH: QVQLVESGGGSVQPGGSLRLSCAVSGFTLDYYDIGWFRQAPGKERDWISCISSSDGSQYYADSVKDRFFISRDNAKNTVYLQMNSLEPGDTAVYYCAADFDTYRFCSGFGPDAYSSWGQGTQVIVSS
notes: as for B1
B8: 504#SS29 (Fc fusion, not shown: a dimerising Fc or GST; small tags and cut ends)
VHH: QVQLVESGGGLVQAGGSLRLSCAASGRTFSGYTMGWFRRAPGKERELIANILWNSARRYYADSVKGRFTISRDNAMNTVDLQMNSLKPEDTAVYYCAVLVDSTYRFSNQGTQVTVSS
notes: as for B1
B9: 504#SS30 (Fc fusion, not shown: a dimerising Fc or GST; small tags and cut ends)
VHH: EVQLVETGGGLVQAGGSLRLACEVSGRTFSSYAMGWFRQAPGREREFVASIRVSGGITDYADSVKGRFTISRDNAKDTVYLQMINLKPEDTAVYYCNADISRYRFSRGDYWGKGTLVTVSS
notes: as for B1
B10: 504#SS1 (Fc fusion)
VHH: QVQLVESGGGLVQAGGSLRLSCAASGLTFSDFAMGWFRQAPGKEREFVAAISWSGGQTYNVESAKGRFTISRDNAKNTVYLQMNKLKPDDTAVYYCAASTMVVTTVAADYKYWGQGTQVTVSS
notes: VHH-FC construct from HEK293 cells; not shown: The (G4S)3 linker leading to it is left out with it
B11: 504#SS2 (Fc fusion)
VHH: EVQVVESGGGLVKTGDSLRLSCAASGGTISGYEMGWFRQAPGKEREFVAGISRNGRSTGYSDSAKDRFTISRDNAKNTVYLQMNSLKPEDTAVYYCAAGLKADYGDSYVDTSTRNYNYWGQGTQVTVSS
notes: as for B10
B12: 504#SS5 (Fc fusion)
VHH: QVQLVESGGGSAQAGGSLRLSCTASGRPFSIYDMGWFRQAPGKERESVAVINLSRGNTYYADSVKGRFTISLDSAKNTVYLQMNSLKPEDTAVYSCGVDRRQYGLGIPPLADYWGQGTQVTVSS
notes: as for B10
B13: 504#SS7 (Fc fusion)
VHH: QVQLVESGGGLVQAGGSLTLSCAASGRTFNSYAMGWFRQAPGKEREFVAAISQNGGSQGYAEAVKDRFTISRDNTNKVVALQMNSLKPEDTAAYYCAADGDASDRSYAPPRDYKYEYWGQGTQVTVSS
notes: as for B10
B14: 504#SS8 (Fc fusion)
VHH: EVQVVESGGGLVQAGGSLRLSCTASGRTFSNYAMGWFRQAPGKEREFVASVTWGGSGTFYADSVKGRFTISRDNIKNTVYLQMNSLKPEDTAVYYCAADNVGDSWYSDDYKYWGQGTQVTVSS
notes: as for B10
B15: 504#SS9 (Fc fusion)
VHH: EVQLQESGGGLVQAGGSLRLSCAASGRSFSGYAMAWFRQAPGKEREFVAAVNWNGGSTYYADSVKGRFTISRDNAKDTVYLQMNSLKPEDTAVYYCNARPTFGAYYSDYKSGVDYWGQGTQVTVSS
notes: as for B10
B16: 504#SS10 (Fc fusion, not shown: a dimerising Fc or GST; small tags and cut ends)
VHH: EVQLVESGGGLVQPGASLRLSCTASGSIFSIYAMGWYRQAPGKQRELVAYITSGGSTTYADSVKGRFTISRDNAKNTVYLQMNSLKPEDTAVYYCNRGNYYRDYKPEFWGQGTQVTVSS
notes: as for B1
B17: 504#SS12 (Fc fusion, not shown: a dimerising Fc or GST; small tags and cut ends)
VHH: EVQVVESGGGLVQPGGSLRLSCAVSGRGFSEHAMGWYRQSPGKQREFVAGVTSYGGTNYADSVKGRFTISRDNVGNTVFLQMNSLKPEDTAVYYCNYKRGHYPDGVSTYEYWGQGTQVTVSS
notes: as for B1

The binders below were run against T1, PD-1 protein (human, UniProt Q15116 25-167, limits assumed) (assay: ELISA, PD-1 coated).
T1 construct: also called human PD-1
Description: 2 μg/ml of PD-1 protein is coated on 96-well plates overnight for ELISA binding assay. Recombinant VHH-FC proteins are added to the wells and allowed to stand for a period of time, then 1 μg/ml of HRP-conjugated anti-FC antibody is added as detection antibody and the assay reagents are added. The absorbance is read at 450 nm. Binding of nivolumab serves as a positive control and plates coated with BSA are used as the negative control group.

T1 sequence (Q15116 25-167 limits assumed): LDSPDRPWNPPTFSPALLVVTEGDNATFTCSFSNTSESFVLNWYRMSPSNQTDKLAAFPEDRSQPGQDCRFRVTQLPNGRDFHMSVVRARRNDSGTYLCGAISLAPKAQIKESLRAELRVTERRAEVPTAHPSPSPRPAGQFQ

| OD450 at 0.002 µg/mL [OD450] | OD450 at 0.02 µg/mL [OD450] | OD450 at 0.2 µg/mL [OD450] | OD450 at 2 µg/mL [OD450] | Binder |
| --- | --- | --- | --- | --- |
| 0.04 | 0.03 | 0.03 | 0.04 | B1 |
| 0.04 | 0.04 | 0.04 | 0.05 | B2 |
| 0.03 | 0.04 | 0.03 | 0.05 | B3 |
| 0.04 | 0.03 | 0.03 | 0.04 | B4 |
| 0.19 | 1.22 | 2.91 | 3 | B5 |
| 0.03 | 0.03 | 0.03 | 0.04 | B6 |
| 0.14 | 0.93 | 2.77 | 3.06 | B7 |
| 0.04 | 0.04 | 0.06 | 0.35 | B8 |
| 0.04 | 0.03 | 0.03 | 0.04 | B9 |
| 0.03 | 0.03 | 0.03 | 0.04 | B10 |
| 0.59 | 2.25 | 3.12 | 3.1 | B11 |
| 1.56 | 2.79 | 3.18 | 3.06 | B12 |
| 0.03 | 0.05 | 0.24 | 1.07 | B13 |
| 0.03 | 0.03 | 0.03 | 0.04 | B14 |
| 0.03 | 0.03 | 0.03 | 0.04 | B15 |
| 0.03 | 0.03 | 0.03 | 0.04 | B16 |
| 0.03 | 0.03 | 0.04 | 0.07 | B17 |

These binders were tested against T1, PD-1 protein (assay: blocking ELISA, PD-1 coated, competitor biotin PD-L1).
Description: Each well of 96-well microtiter plates is coated with 2 μg/ml of PD-1 protein in PBS and blocked with 1% BSA. […]
The intensity of the developed color is measured at 450 nm. Wells with no added PD-1 and no added VHH-FC are negative and positive controls, respectively.

| OD450 of PD-L1 bound, antibody at 0.15 µg/mL [OD450] | OD450 of PD-L1 bound, antibody at 0.61 µg/mL [OD450] | OD450 of PD-L1 bound, antibody at 2.42 µg/mL [OD450] | OD450 of PD-L1 bound, antibody at 9.75 µg/mL [OD450] | Binder |
| --- | --- | --- | --- | --- |
| 3.22 | 3.25 | 3.27 | 3.36 | B1 |
| 3.53 | 3.69 | 3.57 | 3.68 | B2 |
| 3.48 | 3.35 | 3.22 | 3.26 | B3 |
| 3.47 | 3.34 | 3.32 | 3.28 | B4 |
| 3.47 | 3.31 | 3.29 | 3.28 | B5 |
| 3.32 | 3.3 | 3.36 | 3.17 | B6 |
| 3.32 | 3.28 | 3.31 | 3.27 | B7 |
| 3.35 | 3.36 | 3.39 | 3.31 | B8 |
| 3.33 | 3.26 | 3.29 | 3.28 | B9 |
| 3.19 | 3.15 | 3.26 | 3.17 | B10 |
| 3.34 | 3.23 | 3.31 | 3.31 | B11 |
| 3.18 | 1.65 | 0.14 | 0.08 | B12 |
| 3.32 | 3.35 | 3.31 | 3.26 | B13 |
| 3.27 | 3.28 | 3.33 | 3.27 | B14 |
| 3.42 | 3.36 | 3.46 | 3.32 | B15 |
| 3.27 | 3.24 | 3.28 | 3.32 | B16 |
| 3.22 | 3.2 | 3.27 | 3.28 | B17 |
